Assay results as given in patent publication US6100053A, “Microbial transglutaminases, their production and use” (priority 1994, dated 2000).
Where two headings read alike, the source gives them in different places.

How the values were obtained:
[1] = target: α-casein
[2] = target: α-casein; remark: listed apart in the source

| Units/ml (putrescine assay) [1] [units/ml] | Units/ml (putrescine assay) [2] [Units/ml] | Substance |
| --- | --- | --- |
| 0.06 | – | TGase sample of B. amyloliquefaciens (pool or library) |
| 0.6 | – | TGase sample of Bacillus firmus, ATCC 17060 (pool or library) |
| 0.4 | – | TGase sample of Bacillus mycoides (pool or library) |
| 0.1 | – | TGase sample of Bacillus sp., ATCC 21537 (pool or library) |
| 0.3 | – | TGase sample of Bacteridium sp., DSM 10093 (pool or library) |
| 0.3 | – | TGase sample of Hafnia alvei (pool or library) |
| 0.3 | – | TGase sample of Kitasatao purpurea (pool or library) |
| 0.08 | – | TGase sample of Pseudomonas amyloderamosa (pool or library) |
| 1.4 | – | TGase sample of Pseudomonas putida, NCIMB 9869 (pool or library) |
| 0.9 | – | TGase sample of Rothia dentocariosa (pool or library) |
| 0.3 | – | TGase sample of Streptomyces nigrescens (pool or library) |
| 3.3 | – | TGase sample of Streptomyces sioyaensis (pool or library) |
| 1.3 | – | transglutaminase from Streptomyces lydicus, NRRL B-3446 (former Streptomyces libani) (enzyme) |
| – | 0.95 | transglutaminase preparation (culture broth) of Hortea werneckii (pool or library) |
| – | 0.17 | transglutaminase preparation (culture broth) of Hygrophoropsis aurantiaca (pool or library) |
| – | 0.14 | transglutaminase preparation (culture broth) of Hypholoma fasciculare (pool or library) |

| Units/ml (putrescine assay) [1] [units/ml] | Units/ml (putrescine assay) [2] [Units/ml] | Substance |
| --- | --- | --- |
| – | 0.25 | transglutaminase preparation (culture broth) of Lyophyllum sp. (pool or library) |
| – | 2.31 | transglutaminase preparation (culture broth) of Monodictys pelagica (pool or library) |
| – | 0.31 | transglutaminase preparation (culture broth) of Mucor aligarensis (pool or library) |
| – | 0.34 | transglutaminase preparation (culture broth) of Mucor luteus (pool or library) |
| – | 0.14 | transglutaminase preparation (culture broth) of Nidula sp. (pool or library) |
| – | 1.2 | transglutaminase preparation (culture broth) of Nodulisporium sp. (pool or library) |
| – | 0.15 | transglutaminase preparation (culture broth) of Panaeolus papilionaceus (pool or library) |
| – | 0.21 | transglutaminase preparation (culture broth) of Pholiota jahnii (pool or library) |
| – | 0.3 | transglutaminase preparation (culture broth) of Podospora tetraspora (pool or library) |
| – | 0.17 | transglutaminase preparation (culture broth) of Rhizoctonia solani (pool or library) |
| – | 6.24 | transglutaminase preparation (culture broth) of Savoryella lignicola (pool or library) |
| – | 0.16 | transglutaminase preparation (culture broth) of Stropharia coerulea (pool or library) |
| – | 0.25 | transglutaminase preparation (culture broth) of Trichoderma harzianum (pool or library) |
| – | 0.23 | transglutaminase preparation (culture broth) of Tricholoma myomyces (pool or library) |
| – | 0.28 | transglutaminase preparation (culture broth) of Xylaria sp (pool or library) |

The remaining lines, values behind:

| Substance | Units/ml (putrescine assay) [1] [units/ml] | Units/ml (putrescine assay) [2] [Units/ml] |
| --- | --- | --- |
| Ca2+-independent transglutaminase from Streptomyces platensis (enzyme) | 1.4 | – |
| TGase sample of Bacillus aneurinolyticus (pool or library) | 0.8 | – |
| TGase sample of Bacillus badius (pool or library) | 0.8 | – |
| TGase sample of Bacillus firmus, DSM 12 (pool or library) | 0.03 | – |
| TGase sample of Bacillus megaterium, AJ 3355 (pool or library) | 0.03 | – |
| TGase sample of Bacillus megaterium, ATCC 13632 (pool or library) | 0.02 | – |
| TGase sample of Bacillus megaterium, ATCC 15450 (pool or library) | 0.02 | – |
| TGase sample of Bacteridium sp., CBS 495.74 (pool or library) | 0.5 | – |
| TGase sample of Hydrogenophaga palleroni (Basonym: Pseudomonas palleroni) (pool or library) | 0.6 | – |
| TGase sample of Pseudomonas putida, DSM 1693 (pool or library) | 0.84 | – |
| TGase sample of Zymomonas mobilis (pool or library) | 0.36 | – |
| transglutaminase preparation (culture broth) of Halosphaeriopsis mediosetigera (pool or library) | – | 0.34 |
| transglutaminase preparation (culture broth) of Humicola alopallonella (pool or library) | – | 0.76 |
| transglutaminase preparation (culture broth) of Hymenochaete corticola (pool or library) | – | 1.31 |
| transglutaminase preparation (culture broth) of Kuhneromyces variabilis (pool or library) | – | 0.14 |
| transglutaminase preparation (culture broth) of Lignincola sp. (pool or library) | – | 0.15 |

| Substance | Units/ml (putrescine assay) [1] [units/ml] | Units/ml (putrescine assay) [2] [Units/ml] |
| --- | --- | --- |
| transglutaminase preparation (culture broth) of Lulworthia uniseptata (pool or library) | – | 0.36 |
| transglutaminase preparation (culture broth) of Myrothecium roridum (pool or library) | – | 0.13 |
| transglutaminase preparation (culture broth) of Neosartorya quadricineta (pool or library) | – | 0.22 |
| transglutaminase preparation (culture broth) of Pleurotus dryinus (pool or library) | – | 0.22 |
| transglutaminase preparation (culture broth) of Pleurotus sp. (pool or library) | – | 2.36 |
| transglutaminase preparation (culture broth) of Preussia isomera (pool or library) | – | 0.22 |
| transglutaminase preparation (culture broth) of Psathyrella condolleana (pool or library) | – | 0.19 |
| transglutaminase preparation (culture broth) of Pycnoporus cinnabarinus (pool or library) | – | 0.14 |
| transglutaminase preparation (culture broth) of Scytinostroma portentosum (pool or library) | – | 0.14 |
| transglutaminase preparation (culture broth) of Sporormiella australis (pool or library) | – | 0.13 |
| transglutaminase preparation (culture broth) of Sporormiella minima (pool or library) | – | 0.2 |
| transglutaminase preparation (culture broth) of Talaromyces helicus (pool or library) | – | 0.23 |
| transglutaminase preparation (culture broth) of Trametes hirsuta (pool or library) | – | 0.21 |
| transglutaminase preparation (culture broth) of Tricholoma flavovirens (pool or library) | – | 0.16 |
| transglutaminase preparation (culture broth) of Valsa pini (pool or library) | – | 0.73 |
| transglutaminase preparation (culture broth) of Warcupiella spinulosa (pool or library) | – | 0.41 |
